What was measured:
[1] = biological target: hepatocyte growth factor (HGF) (UniProt P14210); experiment: cell-based or functional assay
[2] = biological target: Met on MDCK II cells (Madin-Darby canine kidney) (canine (cell line MDCK II)) (UniProt Q75ZY9); experiment: cell-based or functional assay

**Q.** “Met-877 His tag protein (Met-877 splice variant with C-terminal Strep II and 8xHis tags) (from UniProt P08581 25-861) (receptor)” was tested. Which amount of inhibitory protein that gave roughly 50% inhibition of scattering, HGF ~5-7 ng/ml, MDCK and HT115 [1] did it give?
**A.** Its amount of inhibitory protein that gave roughly 50% inhibition of scattering, HGF ~5-7 ng/ml, MDCK and HT115 is 0.1 to 1 µg/mL.

**Q.** And the inhibition of HGF-induced Met tyrosine phosphorylation, A431 or A549 cells, 100 µg/ml Met-877, 10 ng/ml HGF [1]?
**A.** Its inhibition of HGF-induced Met tyrosine phosphorylation, A431 or A549 cells, 100 µg/ml Met-877, 10 ng/ml HGF is 70%.

**Q.** And the inhibition of Met tyrosine phosphorylation, NCI-H441 cells (constitutive phosphorylation), 100 µg/ml Met-877, 10 ng/ml HGF [1]?
**A.** Its inhibition of Met tyrosine phosphorylation, NCI-H441 cells (constitutive phosphorylation), 100 µg/ml Met-877, 10 ng/ml HGF is 40%.

**Q.** And the scattering score, HT115, inhibitor 1 µg/ml, HGF 7 ng/ml [1]?
**A.** Its scattering score, HT115, inhibitor 1 µg/ml, HGF 7 ng/ml is 1 score 1-5.

**Q.** What about the scattering score, HT115, inhibitor 5 µg/ml, HGF 7 ng/ml [1] of the same substance?
**A.** Its scattering score, HT115, inhibitor 5 µg/ml, HGF 7 ng/ml is 1 score 1-5.

**Q.** And the scattering score, HT115, inhibitor 10 µg/ml, HGF 7 ng/ml [1]?
**A.** Its scattering score, HT115, inhibitor 10 µg/ml, HGF 7 ng/ml is 1 score 1-5.

**Q.** And the scattering score, HT115, inhibitor 10 µg/ml, HGF 50 ng/ml [1]?
**A.** The scattering score, HT115, inhibitor 10 µg/ml, HGF 50 ng/ml was 3 score 1-5.

**Q.** And the scattering score, HT115, inhibitor 100 µg/ml, HGF 50 ng/ml [1]?
**A.** The scattering score, HT115, inhibitor 100 µg/ml, HGF 50 ng/ml was 1 score 1-5.

**Q.** And the scattering score, MDCK, inhibitor 0.1 µg/ml, HGF 5 ng/ml [1]?
**A.** The scattering score, MDCK, inhibitor 0.1 µg/ml, HGF 5 ng/ml was 5 score 1-5.

**Q.** What about the scattering score, MDCK, inhibitor 30 µg/ml, HGF 50 ng/ml [1] of the same substance?
**A.** The scattering score, MDCK, inhibitor 30 µg/ml, HGF 50 ng/ml was 4 score 1-5.

**Q.** What about the scattering score, MDCK, inhibitor 100 µg/ml, HGF 50 ng/ml [1] of the same substance?
**A.** Its scattering score, MDCK, inhibitor 100 µg/ml, HGF 50 ng/ml is 3 score 1-5.

**Q.** What does the source list for “Met-877-Fc (Met-877 splice variant fused to human IgG1 Fc) (Fc fusion)”?
**A.** amount of inhibitory protein that gave roughly 50% inhibition of scattering, HGF ~5-7 ng/ml, MDCK and HT115 [1]: 0.1 to 1 µg/mL; inhibition of HGF-induced Met phosphorylation, A549 and MDA-MB-231 cells, doses higher than 3-10 nM [1]: > 90%; inhibition of HGF-induced phosphorylation of Met Y1230/4/5, MDA-MB-231 cells, 3 nM variant [1]: > 60%; inhibition of HGF-induced proliferation of AsPC-1 cells (BrdU incorporation), 10 ng/ml HGF, 877-Fc at 100 and 300 nM [1]: 90%; inhibition of HGF-induced urokinase upregulation, MDCK II, 10 ng/ml HGF, 3 nM variant [1]: 60 to 80%; inhibition of HGF-induced urokinase upregulation, MDCK II, 10 ng/ml HGF, 10 nM variant [1]: 80%; inhibition of HGF-induced urokinase upregulation, MDCK II, 10 ng/ml HGF, doses higher than 10 nM [1]: > 95%; inhibition of HGF-induced urokinase upregulation, MDCK II, 10 ng/ml HGF, variant at 50 nM or more [1]: > 95%; scattering score, HT115, inhibitor 0.1 µg/ml, HGF 3 ng/ml [1]: 2 score 1-5; scattering score, HT115, inhibitor 0.1 µg/ml, HGF 5 ng/ml [1]: 3 score 1-5; scattering score, HT115, inhibitor 5 µg/ml, HGF 5 ng/ml [1]: 1 score 1-5; scattering score, HT115, inhibitor 5 µg/ml, HGF 7 ng/ml [1]: 1 score 1-5; scattering score, HT115, inhibitor 10 µg/ml, HGF 1 ng/ml [1]: 1 score 1-5; scattering score, HT115, inhibitor 10 µg/ml, HGF 3 ng/ml [1]: 1 score 1-5; scattering score, HT115, inhibitor 10 µg/ml, HGF 5 ng/ml [1]: 1 score 1-5; scattering score, HT115, inhibitor 10 µg/ml, HGF 7 ng/ml [1]: 1 score 1-5; scattering score, HT115, inhibitor 10 µg/ml, HGF 50 ng/ml [1]: 2 score 1-5; scattering score, HT115, inhibitor 100 µg/ml, HGF 50 ng/ml [1]: 1 score 1-5; scattering score, MDCK, inhibitor 0.1 µg/ml, HGF 7 ng/ml [1]: 5 score 1-5; scattering score, MDCK, inhibitor 1 µg/ml, HGF 1 ng/ml [1]: 1 score 1-5; scattering score, MDCK, inhibitor 1 µg/ml, HGF 5 ng/ml [1]: 3 score 1-5; scattering score, MDCK, inhibitor 1 µg/ml, HGF 7 ng/ml [1]: 3 score 1-5; scattering score, MDCK, inhibitor 1 µg/ml, HGF 10 ng/ml [1]: 3 score 1-5; scattering score, MDCK, inhibitor 5 µg/ml, HGF 10 ng/ml [1]: 2 score 1-5; scattering score, MDCK, inhibitor 10 µg/ml, HGF 1 ng/ml [1]: 1 score 1-5; scattering score, MDCK, inhibitor 10 µg/ml, HGF 5 ng/ml [1]: 1 score 1-5; scattering score, MDCK, inhibitor 10 µg/ml, HGF 7 ng/ml [1]: 1 score 1-5; scattering score, MDCK, inhibitor 10 µg/ml, HGF 10 ng/ml [1]: 1 score 1-5; scattering score, MDCK, inhibitor 10 µg/ml, HGF 30 ng/ml [1]: 2 score 1-5; scattering score, MDCK, inhibitor 30 µg/ml, HGF 10 ng/ml [1]: 1 score 1-5; scattering score, MDCK, inhibitor 30 µg/ml, HGF 30 ng/ml [1]: 1 score 1-5; scattering score, MDCK, inhibitor 30 µg/ml, HGF 100 ng/ml [1]: 2 score 1-5; scattering score, MDCK, inhibitor 100 µg/ml, HGF 100 ng/ml [1]: 1 score 1-5

**Q.** With “Met-885-Fc (Met-885 splice variant fused to human IgG1 Fc) (Fc fusion)” as the substance, how does the amount of inhibitory protein that gave roughly 50% inhibition of scattering, HGF ~5-7 ng/ml, MDCK and HT115 [1] read?
**A.** Its amount of inhibitory protein that gave roughly 50% inhibition of scattering, HGF ~5-7 ng/ml, MDCK and HT115 is 0.1 to 1 µg/mL.

**Q.** What about the inhibition of HGF-induced Met phosphorylation, A549 and MDA-MB-231 cells, doses higher than 3-10 nM [1] of the same substance?
**A.** The inhibition of HGF-induced Met phosphorylation, A549 and MDA-MB-231 cells, doses higher than 3-10 nM was > 90%.

**Q.** And the inhibition of HGF-induced phosphorylation of Met Y1230/4/5, MDA-MB-231 cells, 3 nM variant [1]?
**A.** The inhibition of HGF-induced phosphorylation of Met Y1230/4/5, MDA-MB-231 cells, 3 nM variant was > 60%.

**Q.** And the inhibition of HGF-induced urokinase upregulation, MDCK II, 10 ng/ml HGF, 3 nM variant [1]?
**A.** The inhibition of HGF-induced urokinase upregulation, MDCK II, 10 ng/ml HGF, 3 nM variant was 60 to 80%.

**Q.** And the inhibition of HGF-induced urokinase upregulation, MDCK II, 10 ng/ml HGF, doses higher than 10 nM [1]?
**A.** The inhibition of HGF-induced urokinase upregulation, MDCK II, 10 ng/ml HGF, doses higher than 10 nM was > 95%.

**Q.** And the scattering score, HT115, inhibitor 1 µg/ml, HGF 7 ng/ml [1]?
**A.** Its scattering score, HT115, inhibitor 1 µg/ml, HGF 7 ng/ml is 1 score 1-5.

**Q.** And the scattering score, HT115, inhibitor 5 µg/ml, HGF 7 ng/ml [1]?
**A.** Its scattering score, HT115, inhibitor 5 µg/ml, HGF 7 ng/ml is 1 score 1-5.

**Q.** What about the scattering score, HT115, inhibitor 10 µg/ml, HGF 7 ng/ml [1] of the same substance?
**A.** Its scattering score, HT115, inhibitor 10 µg/ml, HGF 7 ng/ml is 1 score 1-5.

**Q.** And the scattering score, HT115, inhibitor 30 µg/ml, HGF 50 ng/ml [1]?
**A.** The scattering score, HT115, inhibitor 30 µg/ml, HGF 50 ng/ml was 2 score 1-5.

**Q.** What about the scattering score, MDCK, inhibitor 1 µg/ml, HGF 5 ng/ml [1] of the same substance?
**A.** Its scattering score, MDCK, inhibitor 1 µg/ml, HGF 5 ng/ml is 2 score 1-5.

**Q.** What about the scattering score, MDCK, inhibitor 5 µg/ml, HGF 5 ng/ml [1] of the same substance?
**A.** The scattering score, MDCK, inhibitor 5 µg/ml, HGF 5 ng/ml was 2 score 1-5.

**Q.** With “Met-934-Fc (Met-934 splice variant fused to human IgG1 Fc) (Fc fusion)” as the substance, how does the amount of inhibitory protein that gave roughly 50% inhibition of scattering, HGF ~5-7 ng/ml, MDCK and HT115 [1] read?
**A.** The amount of inhibitory protein that gave roughly 50% inhibition of scattering, HGF ~5-7 ng/ml, MDCK and HT115 was 0.1 to 1 µg/mL.

**Q.** What about the inhibition of HGF-induced Met phosphorylation, A549 and MDA-MB-231 cells, doses higher than 3-10 nM [1] of the same substance?
**A.** Its inhibition of HGF-induced Met phosphorylation, A549 and MDA-MB-231 cells, doses higher than 3-10 nM is > 90%.

**Q.** What about the inhibition of HGF-induced phosphorylation of Met Y1230/4/5, MDA-MB-231 cells, 3 nM variant [1] of the same substance?
**A.** The inhibition of HGF-induced phosphorylation of Met Y1230/4/5, MDA-MB-231 cells, 3 nM variant was > 60%.

**Q.** What about the inhibition of HGF-induced urokinase upregulation, MDCK II, 10 ng/ml HGF, 3 nM variant [1] of the same substance?
**A.** The inhibition of HGF-induced urokinase upregulation, MDCK II, 10 ng/ml HGF, 3 nM variant was 60 to 80%.

**Q.** And the inhibition of HGF-induced urokinase upregulation, MDCK II, 10 ng/ml HGF, doses higher than 10 nM [1]?
**A.** Its inhibition of HGF-induced urokinase upregulation, MDCK II, 10 ng/ml HGF, doses higher than 10 nM is > 95%.

**Q.** What about the scattering score, MDCK, inhibitor 10 µg/ml, HGF 50 ng/ml [1] of the same substance?
**A.** The scattering score, MDCK, inhibitor 10 µg/ml, HGF 50 ng/ml was 3 score 1-5.

**Q.** What about the scattering score, MDCK, inhibitor 10 µg/ml, HGF 100 ng/ml [1] of the same substance?
**A.** Its scattering score, MDCK, inhibitor 10 µg/ml, HGF 100 ng/ml is 5 score 1-5.

**Q.** What about the scattering score, MDCK, inhibitor 30 µg/ml, HGF 50 ng/ml [1] of the same substance?
**A.** Its scattering score, MDCK, inhibitor 30 µg/ml, HGF 50 ng/ml is 2 score 1-5.

**Q.** What about the scattering score, MDCK, inhibitor 100 µg/ml, HGF 100 ng/ml [1] of the same substance?
**A.** Its scattering score, MDCK, inhibitor 100 µg/ml, HGF 100 ng/ml is 1 score 1-5.

**Q.** “hepatocyte growth factor (HGF) (from UniProt P14210 32-728) (ligand)” was tested. Which scattering score, MDCK, no inhibitor, HGF 5-100 ng/ml [2] did it give?
**A.** Its scattering score, MDCK, no inhibitor, HGF 5-100 ng/ml is 5 score 1-5.
